Assay results from patent US7932067B2, “Detection, isolation and uses of renalase (monoamine oxidase C)” (Yale University, priority 2004, dated 2011).

Columns and labels:
[1] = Amine oxidase assay of renalase (Amplex Red Monoamine Oxidase Assay Kit) with amines as substrates; type: biochemical, human; conditions: GST-renalase fusion protein, battery of amines as substrates, 2 mM
Description: Enzyme assay of renalase was carried out using an Amplex Red Monoamine Oxidase Assay Kit (Molecular Probes, Cat # A-12214) that provides one-step fluorometric method for the continuous measurement of amine oxidase activity using a fluorescence microplate reader. The assay is based on the detection of H2O2 in a horseradish peroxidase-coupled reaction using 10-acetyl-3,7-dihydroxy-phenoxazine (Amplex Red reagent), a highly sensitive and stable probe for H2O2. Experiments were carried out according to manufacturer's instruction with a final substrate concentration of 2 mM.
Therefore, we tested whether it had oxidase activity using a battery of amines as substrates. Renalase fusion protein in E. Coli was generated by cloning renalase cDNA into a Glutathione-S-Transferase (GST)-1-containing pGEX expression vector using the GST Gene Fusion System. […] Its enzymatic activity was unaffected by inhibitors of the FAD-containing amine oxidases, MAO-A and MAO-B (FIG. 4b).
We subsequently tested whether renalase has an oxidase activity using a battery of amines as substrates. […] Thus, it can be concluded that renalase is novel protein that metabolizes dopamine, norepinephrine and epinephrine.

Sprague Dawley rats = experiment: Hemodynamics measurements after bolus intravenous injection of recombinant renalase; type: in vivo, rat
Description: Sprague Dawley rats (150-250 g) were anesthetized with inactin (100 mg/kg). A catheter (PE-240) was placed in the trachea for airway protection and in the left jugular vein (PE-50) for intravenous infusion of a maintenance fluid solution consisting of normal saline with 6.25% bovine albumin, at a rate of 1.5 ml per 100 g body wt per hour. Core temperature was monitored through a rectal thermometer and body temperature was maintained at 37° C. using a heating pad. Arterial pressure and heart rate were continuously monitored through a PE-50 catheter inserted in the left carotid artery and connected to a pressure transducer (ADInstruments, CO, USA). Hemodynamic recordings were digitized, stored and analyzed using a PowerLab/8SP data acquisition system (ADIntruments). The rats were allowed 1 h to recover after completion of the surgical procedure, and the subsequent 30 minutes served as a control period. The experimental group then received a bolus intravenous injection of 0.5 mg of recombinant renalase in 0.5 ml PBS. The control group was injected with either 0.5 mg BSA or 0.5 mg recombinant glutathione transferase in 0.5 ml of PBS. Blood pressure and heart rate were continuously measured and recorded.
Blood pressure is a function of cardiac output and peripheral vascular resistance, and is regulated by the sympathetic nervous system. Circulating catecholamines control heart rate, myocardial contractility, and the tone of resistance vessels. Since renalase circulates in blood and degrades catecholamines, we examined its in vivo effect on hemodynamic parameters. Within 30 seconds of a single bolus intravenous injection of recombinant renalase, systolic, diastolic and mean arterial pressure decreased by 23.5±1.3, 32.6±2.9 and 28.9±2.7% respectively, (n=4, p<0.001). […] Heart rate remained unchanged initially, and decreased slightly (6.4%) by 60 min, (FIG. 7A, lower panel). In control studies, blood pressure and heart rate were unaffected by either albumin or GST infusion (FIG. 7B). […] Alternatively, renalase could bind to a cognate receptor and modulate myocardial contractility and vascular resistance directly.

nephrectomized rats [2] = experiment: Intervention model for chronic renal failure (rat remnant kidney model); type: in vivo; conditions: nephrectomized rats, 10, 100, 500 microgram/kg SQ twice per day, 4-8 weeks
Text: (§1) A rat partial (5/6) nephrectomy or rat remnant kidney model can be used as described (Wada, M et al; J Clin Invest 1997 Dec. 15; 100(12):2977-83). Male rats (2-3 months old, weighing about 150-200 g) are subjected to unilateral nephrectomy (either left or right kidney) first. A 2.0 cm skin incision is made in the ventral midline, with its cranial terminus 1.0 cm caudal to the xyphoid process. A 2.0 cm muscle incision is made along the midline. The right kidney is isolated and cleared of surrounding fat and connective tissue to clearly view the renal artery and vein, and ureter as they enter the hilus of the kidney. Care is exercised to minimize disturbance of the adrenal gland. A ligature (3/0 silk) is placed around the renal artery, vein and ureter. These vessels are then cut proximal to the kidney and the kidney is removed, taking care that the adrenal gland is not disturbed. The second step of the surgical procedure involves the removal of the 2/3 of the remaining kidney in 7-10 days after the first step. Plasma creatinine (Cr) and BUN levels rise dramatically due to the loss of renal mass and function. Over the next several weeks, plasma Cr and BUN levels of surviving animals decline somewhat toward normal values but remain elevated. Renal function then appears to remain relatively constant or stable for a period of variable duration. […]

nephrectomized rats [3] = experiment: Prophylactic model for chronic renal failure (rat remnant kidney model); type: in vivo; conditions: 100 microgram/kg SQ twice per day, 8-9 weeks
Text: as §1

[4] = rat, nadir between 60-90 minutes after injection, n=4, p<0.01
[5] = rat, within 30 seconds of single bolus iv injection, 0.5 mg, n=4, p<0.001

- rank order potency of catecholamine metabolism [1]: dopamine>epinephrine>norepinephrine
B1: Renalase: novel FAD-dependent monoamine oxidase secreted by the kidney that metabolizes dopamine, norepinephrine and epinephrine; SEQ ID NO: 2 (protein, listed as Homo sapiens)
chain: MAQVLIVGAGMTGSLCAALLRRQTSGPLYLAVWDKADDSGGRMTTACSPHNPQCTADLGAQYITCTPHYAKKHQRFYDELLAYGVLRPLSSPIEGMVMKEGDCNFVAPQGISSIIKHYLKESGAEVYFRHRVTQINLRDDKWEVSKQTGSPEQFDLIVLTMPVPEILQLQGDITTLISECQRQQLEAVSYSSRYALGLFYEAGTKIDVPWAGQYITSNPCIRFVSIDNKKRNIESSEIGPSLVIHTTVPFGVTYLEHSIEDVQELVFQQLENILPGLPQPIATKCQKWRHSQVTNAAANCPGQMTLHHKPFLACGGDGFTQSNFDGCITSALCVLEALKNYI
- Arterial elastance (Sprague Dawley rats; Table 1, renalase vs control 0.94 ± 0.09, n=3, NS): 0.8 ± 0.04 mmHg/uL
- End diastolic pressure (Sprague Dawley rats; Table 1, renalase vs control 11.3 ± 1.8, n=5, NS): 9.3 ± 1.5 mmHg
- Cardiac Output (Sprague Dawley rats; Table 1, renalase vs control 45.8 ± 2.8, n=3, p<0.03): 33.2 ± 1.5 mL/min
- Mean Arterial Pressure (Sprague Dawley rats; Table 1, renalase vs control 106.4 ± 4.7, n=8, p<0.0001): 65.3 ± 3.5 mmHg
- End systolic pressure (Sprague Dawley rats; Table 1, renalase vs control 127.7 ± 8.1, n=5, p<0.004): 92.7 ± 2.7 mmHg
- Heart rate (Sprague Dawley rats; Table 1, renalase vs control 342 ± 6, n=5, p<0.004): 304 ± 9 beats/min
- Systemic vascular resistance (Sprague Dawley rats; Table 1, renalase vs control 2323 ± 196, n=3, NS): 1966 ± 183 mmHg/L/min
- dP/dt (Sprague Dawley rats; Table 1, renalase vs control 8604 ± 728, n=5, p<0.001): 5235 ± 442 mmHg/sec
- decrease in heart rate (Sprague Dawley rats; rat, by 60 min after injection): 6.4%
- heart rate, initial response (Sprague Dawley rats; rat, initially after bolus iv injection): unchanged
- diastolic arterial pressure lower than baseline at nadir (Sprague Dawley rats; [4]): 14.3±1.2%
- mean arterial pressure lower than baseline at nadir (Sprague Dawley rats; [4]): 14.8±1.1%
- systolic arterial pressure lower than baseline at nadir (Sprague Dawley rats; [4]): 16.5±1.5%
- time to recovery of blood pressure after initial fall (Sprague Dawley rats; rat, single bolus iv injection): ≤ 2 min
- decrease in diastolic arterial pressure (Sprague Dawley rats; [5]): 32.6±2.9%
- decrease in mean arterial pressure (Sprague Dawley rats; [5]): 28.9±2.7%
- decrease in systolic arterial pressure (Sprague Dawley rats; [5]): 23.5±1.3%
- expected treatment benefit to Nx rats (plasma BUN, Cr) (nephrectomized rats [2]): slow down chronic renal failure progression
- expected effect on initiation of chronic renal failure (plasma BUN, Cr) (nephrectomized rats [3]): prevent, inhibit or delay the initiation of chronic renal failure
